Measurements: article PMC11061198, “Polyphosphate and tyrosine phosphorylation in the N-terminal domain of the human mitochondrial Lon protease disrupts its functions” (Scientific Reports, 2024)

Target: the molecule itself
Assay: cryo-EM structure; ADP-bound hLon variants, 1.3 mg/ml, single-particle cryo-EM (cryoSPARC); homo-hexamer

B1: human Lon protease Y394E phosphorylation-mimicking mutant (enzyme, UniProt P36776 68-959, looked up)
chain: FWEASSRGGGAFSGGEDASEGGAEEGAGGAGGSAGAGEGPVITALTPMTIPDVFPHLPLIAITRNPVFPRFIKIIEVKNKKLVELLRRKVRLAQPYVGVFLKRDDSNESDVVESLDEIYHTGTFAQIHEMQDLGDKLRMIVMGHRRVHISRQLEVEPEEPEAENKHKPRRKSKRGKKEAEDELSARHPAELAMEPTPELPAEVLMVEVENVVHEDFQVTEEVKALTAEIVKTIRDIIALNPLYRESVLQMMQAGQRVVDNPIYLSDMGAALTGAESHELQDVLEETNIPKRLYKALSLLKKEFELSKLQQRLGREVEEKIKQTHRKELLQEQLKIIKKELGLEKDDKDAIEEKFRERLKELVVPKHVMDVVDEELSKLGLLDNHSSEFNVTRNYLDWLTSIPWGKYSNENLDLARAQAVLEEDHYGMEDVKKRILEFIAVSQLRGSTQGKILCFYGPPGVGKTSIARSIARALNREYFRFSVGGMTDVAEIKGHRRTYVGAMPGKIIQCLKKTKTENPLILIDEVDKIGRGYQGDPSSALLELLDPEQNANFLDHYLDVPVDLSKVLFICTANVTDTIPEPLRDRMEMINVSGYVAQEKLAIAERYLVPQARALCGLDESKAKLSSDVLTLLIKQYCRESGVRNLQKQVEKVLRKSAYKIVSGEAESVEVTPENLQDFVGKPVFTVERMYDVTPPGVVMGLAWTAMGGSTLFVETSLRRPQDKDAKGDKDGSLEVTGQLGEVMKESARIAYTFARAFLMQHAPANDYLVTSHIHLHVPEGATPKDGPSAGCTIVTALLSLAMGRPVRQNLAMTGEVSLTGKILPVGGIKEKTIAAKRAGVTCIVLPAENKKDFYDLAAFITEGLEVHFVEHYREIFDIAFPDEQAEALAVER
notes: human mitochondrial Lon protease (LONP1) lacking the N-terminal MTS, with Y394E; also called hLon Y394E; source: E. coli Rosetta 2 (DE3) or E. coli C321 (DE3), purified (NiNTA agarose, Superose 6 SEC)
In the case of B1, the “stoichiometry N” value is reported as 6.
